One block for each binder: values may come before it.
Tests used:
[1] = biological target: T1, ligand binding domain of hVDR (aa 118-427), His-tagged (human, UniProt P11473 118-427); test: SPR; Biacore T200, hRXRα LBD monomers amine-coupled on CM5 (400-500 RU); hVDR LBD 1-30 µM without ligand or with a 3-fold excess of 1,25D3 or ZK; 50 mM Tris pH 7.5, 150 mM NaCl, 1 mM TCEP, 0.005% Tween 20; steady state fit; conditions: both partners purified
T1 construct: also called hVDR LBD; source: E. coli BL21 DE3, purified (HisTrap, SEC)
T1 sequence (looked up): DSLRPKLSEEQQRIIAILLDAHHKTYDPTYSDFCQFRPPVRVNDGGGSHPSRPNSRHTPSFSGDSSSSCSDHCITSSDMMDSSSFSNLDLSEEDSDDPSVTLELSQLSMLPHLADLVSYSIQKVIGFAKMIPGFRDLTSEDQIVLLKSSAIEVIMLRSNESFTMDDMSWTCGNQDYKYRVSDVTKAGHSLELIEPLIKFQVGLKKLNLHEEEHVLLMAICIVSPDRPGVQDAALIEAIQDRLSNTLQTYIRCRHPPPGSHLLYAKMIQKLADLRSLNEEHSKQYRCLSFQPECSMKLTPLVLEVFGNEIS

[2] = biological target: T2, full-length human vitamin D receptor (hVDR, amino acid 1-427), His-tagged (human, UniProt P11473 1-427); test: MST; ZK-bound VDR
T2 chain: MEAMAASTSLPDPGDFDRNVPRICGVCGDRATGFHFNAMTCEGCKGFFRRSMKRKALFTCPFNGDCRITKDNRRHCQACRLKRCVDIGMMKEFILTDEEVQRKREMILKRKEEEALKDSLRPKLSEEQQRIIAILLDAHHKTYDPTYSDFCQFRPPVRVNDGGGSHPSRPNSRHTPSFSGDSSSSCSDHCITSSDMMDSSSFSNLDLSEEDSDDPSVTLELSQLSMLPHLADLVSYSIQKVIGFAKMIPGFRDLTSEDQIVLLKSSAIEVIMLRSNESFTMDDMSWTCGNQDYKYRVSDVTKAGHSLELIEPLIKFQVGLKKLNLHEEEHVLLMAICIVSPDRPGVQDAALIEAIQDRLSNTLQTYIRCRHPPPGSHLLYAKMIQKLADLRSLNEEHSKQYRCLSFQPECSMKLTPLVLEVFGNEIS

[3] = biological target: T3, full-length human vitamin D receptor (hVDR, amino acid 1-427), His-tagged (human, UniProt P11473 1-427); test: MST; Monolith NT.115; 10 nM Red-NHS labelled full-length hVDR with or without ZK; unlabelled WBP4 122-196 from 100 µM to 1 nM; 20 mM Hepes pH 7.5, 200 mM NaCl, 2% glycerol, 1 mM TCEP, 0.05% Tween 20; 25 °C; 1:1 fit, apparent Kd; conditions: both partners purified
T3 construct: For microscale thermophoresis the protein was labelled with the Red-NHS second generation labelling kit (NanoTemper); also called NR1I1; hVDR full-length; source: E. coli BL21 DE3, purified (HisTrap, SEC)
T3 sequence (looked up): T2 chain

[4] = biological target: T3, full-length human vitamin D receptor …; test: SEC; mixed in stoichiometric amounts and purified on HiLoad Superdex 200 in 20 mM Tris pH 8.0, 75 mM NaCl, 75 mM KCl, 2 mM CHAPS, 5% glycerol, 4 mM MgSO4, 1 mM TCEP; heterodimer then used for HDX-MS (apo, 1,25D3, ZK); conditions: both partners purified

- binding result [1]: binds
B1: ligand binding domain of hRXRα (aa 223-462), His-tagged (domain or fragment, human, UniProt P19793 223-462, looked up)
chain: TSSANEDMPVERILEAELAVEPKTETYVEANMGLNPSSPNDPVTNICQAADKQLFTLVEWAKRIPHFSELPLDDQVILLRAGWNELLIASFSHRSIAVKDGILLATGLHVHRNSAHSAGVGAIFDRVLTELVSKMRDMQMDKTELGCLRAIVLFNPDSKGLSNPAEVEALREKVYASLEAYCKHKYPEQPGRFAKLLLRLPALRSIGLKCLEHLFFFKLIGDTPIDTFLMEMLEAPHQMT
notes: Immobilised as monomers on the SPR chip; also called hRXRα LBD; source: E. coli BL21 DE3, purified (HisTrap, SEC)

- Kd [2]: 11 µM
- fold increase of the affinity in the presence of ZK against without ZK [3]: ~2 fold
B2: hWBP4 polypeptide (amino acid 122-196) encompassing the two WW domains (domain or fragment, human, UniProt O75554 122-196, looked up)
chain: DPSKGRWVEGITSEGYHYYYDLISGASQWEKPEGFQGDLKKTAVKTVWVEGLSEDGFTYYYNTETGESRWEKPDD
notes: also called FBP21; source: E. coli BL21 DE3, purified (glutathione sepharose, thrombin cleavage, SEC); not shown: GST, N-terminal, cleaved

- binding result [4]: binds
B3: N-terminal domain truncated human RXRalpha (hRXRαΔNTD, amino acid 130-462), His-tagged (domain or fragment, UniProt P19793 130-462, looked up)
chain: FTKHICAICGDRSSGKHYGVYSCEGCKGFFKRTVRKDLTYTCRDNKDCLIDKRQRNRCQYCRYQKCLAMGMKREAVQEERQRGKDRNENEVESTSSANEDMPVERILEAELAVEPKTETYVEANMGLNPSSPNDPVTNICQAADKQLFTLVEWAKRIPHFSELPLDDQVILLRAGWNELLIASFSHRSIAVKDGILLATGLHVHRNSAHSAGVGAIFDRVLTELVSKMRDMQMDKTELGCLRAIVLFNPDSKGLSNPAEVEALREKVYASLEAYCKHKYPEQPGRFAKLLLRLPALRSIGLKCLEHLFFFKLIGDTPIDTFLMEMLEAPHQMT
notes: source: E. coli BL21 DE3, purified (HisTrap, SEC)
